These results are taken from doi:10.1101/2025.11.22.689886 (bioRxiv, 2025).

This series deals with the molecule itself. Briefly: SEC. A general note: Size exclusion chromatography separates by hydrodynamic size, large species first.

B1: transdermal peptide-recombinant type III collagen fusion protein (other, human)
chain: FEGPASRPGFPGMKGHRGFDGRNGEKGETGAPGLKGENGLPGENGAPGPMGPRGAPGERGRPGLPGAAGARGNDGARGSDGQPGPPGPPGTAGFPGSPGAKGEVGPAGSPGSNGAPGQRGEPGPQGHAGAQGPPGPPGINGSPGGKGEMGPAGIPGAPGLMGARGPPGPAGANGAPGLRGGAGEPGKNGAKGEPGPRGERGEAGIPGVPGAKGEDGKDGSPGEPGANG
Turning to B1, the stoichiometry N (usually a count of units in the complex or per binding partner) was determined as 3.
